In patent publication US20090053184A1:

Key:
Test in all cases: chromium release; transduced lymphocytes against T2 cells having HLA-A2 pulsed with 'NY-ESO-1 peptide'; which of the listed peptides not given; full-length, on cells
Settings in all cases: chains Valpha:Vbeta
[1] = biological target: T1, NY-ESO-1 peptide on HLA-A*02:01 (human)
T1 chain: SLLMWTTQV

[2] = biological target: T2, NY-ESO-1 peptide on HLA-A*02:01 (human)
T2 chain: SLLMWTTQC

[3] = biological target: T3, NY-ESO-1 peptide on HLA-A*02:01 (human)
T3 chain: SLLMWTTQCFLP

Measured: lowest peptide concentration that stimulated killing

B1: anti-NY-ESO-1 TCR (SEQ ID NOS: 6 and 8) (protein)
chain 1: SQQGEEDPQALSIQEGENATMNCSYKTSINNLQWYRQNSGRGLVHLILIRSNEREKHSGRLRVTLDTSKKSSSLLITASRAADTASYFCATDGAGKSTFGDGTTLTVKP
chain 2: DAGVIQSPRHEVTEMGQEVTLRCKPISGHDYLFWYRQTMMRGLELLIYFNNNVPIDDSGMPEDRFSAKMPNASFSTLKIQPSEPRDSAVYFCASTIGAQPQHFGDGTRLSIL
< 0.02 nM: all assays above
